Experimental data from patent US20090203886A1 (OSAKA UNIVERSITY, published 2009).
Substitutions are numbered along the chain they refer to. Values joined by “and” are separate entries in the source; they are usually repeats but may differ in a detail not shown here. Equal entries are not always repeated.

T1: human CD20 antigen (human, UniProt P11836 1-297)
T1 construct: whole, on cells; also called CD20 on Raji cells; CD20/CHO cells
T1 sequence (looked up): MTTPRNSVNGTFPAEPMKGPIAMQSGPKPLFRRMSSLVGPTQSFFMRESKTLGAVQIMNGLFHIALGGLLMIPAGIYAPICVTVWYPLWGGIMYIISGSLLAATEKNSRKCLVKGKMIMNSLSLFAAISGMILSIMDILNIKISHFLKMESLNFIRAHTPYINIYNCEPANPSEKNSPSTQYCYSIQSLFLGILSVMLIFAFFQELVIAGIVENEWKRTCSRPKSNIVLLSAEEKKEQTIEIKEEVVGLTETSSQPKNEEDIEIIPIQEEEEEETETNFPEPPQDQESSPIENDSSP

B1: humanized 1K1791 antibody va (VenL x AbbH) (antibody, V domains shown)
VH: QIQLVQSGSELKKPGASVKVSCKASGYTFTNFGVNWVRQAPGKGLEWMGWINTYTGEPSYAQGFTGRFVFSLDASVSTAYLQISSLKAEDTATYFCTRRTNYYGTSYYYAMDYWGQGTTVTVSS
VL: STVMTQSPDSLAVSLGERVTINCKASQSVSNDVAWYQQKPGQSPKVLIYFASNRYTGVPDRFSGSGYGTDFTFTISSVQAEDVAVYFCQQDYSSPLTFGAGTKLELK
notes: Kappa, gamma 1 construct; also called hz1791 va; Va016
B2: humanized 1K1791 antibody vs (VenL x SdrH) (antibody, V domains shown)
VH: B1 VH with E46K, V69A
VL: B1 VL
notes: Kappa, gamma 1 construct; also called hz1791 vs; Vs006
B3: humanized 1K1791 antibody aa (AbbL x AbbH) (antibody, V domains shown)
VH: B1 VH
VL: B1 VL with V19A, A25S, T56S, F73L, V78L, L106I
notes: Whole humanized antibody from CHO cells; construct name ends kg1 (kappa, gamma 1); The two clones are producer clones of one construct; also called hz1791 aa; Aa008
B4: humanized 1K1791 antibody av (AbbL x VenH) (antibody, V domains shown)
VH: B1 VH with S9P, V20I, R38K, E46K, Q62D, G63D, T65K, V69A, A92S
VL: B1 VL with V19A, A25S, T56S, F73L, V78L, L106I
notes: Kappa, gamma 1 construct; also called hz1791 av; Av004
B5: humanized 1K1791 antibody vf (VenL x FraH) (antibody, V domains shown)
VH: B1 VH with R38K, E46K, Q62D, G63D, T65K, V69A, V76A, T91M
VL: B1 VL
notes: Kappa, gamma 1 construct; also called hz1791 vf; Vf029
B6: humanized 1K1791 antibody sa (SdrL x AbbH) (antibody, V domains shown)
VH: B1 VH
VL: B1 VL with V19A, A25S, V29N, T56S, F73L, V78L, L106I
notes: Kappa, gamma 1 construct; also called hz1791 sa; Sa023
B7: humanized 1K1791 antibody fa (FraL x AbbH) (antibody, V domains shown)
VH: B1 VH
VL: B1 VL with D9S, S10F, A12S, V13A, L15V, E17D, N22T, F73L, V78L, L106I
notes: Kappa, gamma 1 construct; also called hz1791 fa; Fa007
B8: humanized 1K1791 antibody sv (SdrL x VenH) (antibody, V domains shown)
VH: B1 VH with S9P, V20I, R38K, E46K, Q62D, G63D, T65K, V69A, A92S
VL: B1 VL with V19A, A25S, V29N, T56S, F73L, V78L, L106I
notes: Kappa, gamma 1 construct; also called hz1791 sv; Sv015
B9: humanized 1K1791 antibody fs (FraL x SdrH) (antibody, V domains shown)
VH: B1 VH with E46K, V69A
VL: B1 VL with D9S, S10F, A12S, V13A, L15V, E17D, N22T, F73L, V78L, L106I
notes: Kappa, gamma 1 construct; also called hz1791 fs; Fs007
B10: humanized 1K1791 antibody af (AbbL x FraH) (antibody, V domains shown)
VH: B1 VH with R38K, E46K, Q62D, G63D, T65K, V69A, V76A, T91M
VL: B1 VL with V19A, A25S, T56S, F73L, V78L, L106I
notes: Kappa, gamma 1 construct; also called hz1791 af; Af021

target: T1, human CD20 antigen; assay: Scatchard analysis on Raji cells, FITC anti human Fc secondary (Example 3)
Protocol: (§1) The reaction solution was 1% BSA-PBS solution with a cell number of 5×10⁶ cells and was injected into a 1.5 ml tube to a final volume of 100 μl. Three samples for each test antibody were prepared and four tubes to which antibody was not added were prepared as samples for background calculations.
(§2) After the detecting step, an image was digitized using image analysis software Image Quant (Amersham Bioscience) and analyzed using Excel (Microsoft). Average values for the same test antibodies were calculated and the values for background calculation samples (when only reacting a cell with a FITC-labeled secondary antibody) were subtracted from the test antibody values. The background values derived for the FITC-labeled secondary antibody binding non-specifically to cells, the PBS solution and the plate are omitted. At the same time, a standard curve was prepared by measuring the amount of fluorescence of only FITC-labeled secondary antibodies at amounts of 0, 12.5, 25, 50, 75, 100, 125, and 150 ng per 100 μl. In this manner, the number of moles of secondary antibody binding to cells was calculated. Assuming that each primary antibody and the FITC-labeled secondary antibody react at a ratio of […], the amount of cell-bound primary antibody was calculated. Primary antibody in suspension was calculated by subtracting the bound amount from the added amount. Scatchard analysis was performed using these values in order to calculate a dissociation constant Kd.

Row | Binder | Kd
1 | B1 | 13.1 nM and 7.5 nM
2 | B2 | 8.8 nM and 11.9 nM
3 | B3 | 11.7 nM and 9.96 nM
4 | B4 | 10.7 nM and 9.17 nM
5 | B5 | 7.78 nM and 7.79 nM
6 | B6 | 14.7 nM
7 | B7 | 11.3 nM and 8.83 nM
8 | B8 | 14.3 nM and 10.8 nM
9 | B9 | 6.33 nM and 11.1 nM
10 | B10 | 6.84 nM and 8.67 nM

target: T1, human CD20 antigen; assay: Scatchard analysis on Raji cells (Example 3), average over the clones of the construct
Protocol: as §1, §2

Row | Binder | Kd
11 | B1 | 10.3 nM
12 | B2 | 10.3 nM
13 | B3 | 10.8 nM
14 | B4 | 9.94 nM
15 | B5 | 7.78 nM
16 | B6 | 14.7 nM
17 | B7 | 10.1 nM
18 | B8 | 12.6 nM
19 | B9 | 8.71 nM
20 | B10 | 7.76 nM
